Paper PMC8692352 (2023)

T1: plasminogen (Homo sapiens, UniProt P00747)
T1 chain: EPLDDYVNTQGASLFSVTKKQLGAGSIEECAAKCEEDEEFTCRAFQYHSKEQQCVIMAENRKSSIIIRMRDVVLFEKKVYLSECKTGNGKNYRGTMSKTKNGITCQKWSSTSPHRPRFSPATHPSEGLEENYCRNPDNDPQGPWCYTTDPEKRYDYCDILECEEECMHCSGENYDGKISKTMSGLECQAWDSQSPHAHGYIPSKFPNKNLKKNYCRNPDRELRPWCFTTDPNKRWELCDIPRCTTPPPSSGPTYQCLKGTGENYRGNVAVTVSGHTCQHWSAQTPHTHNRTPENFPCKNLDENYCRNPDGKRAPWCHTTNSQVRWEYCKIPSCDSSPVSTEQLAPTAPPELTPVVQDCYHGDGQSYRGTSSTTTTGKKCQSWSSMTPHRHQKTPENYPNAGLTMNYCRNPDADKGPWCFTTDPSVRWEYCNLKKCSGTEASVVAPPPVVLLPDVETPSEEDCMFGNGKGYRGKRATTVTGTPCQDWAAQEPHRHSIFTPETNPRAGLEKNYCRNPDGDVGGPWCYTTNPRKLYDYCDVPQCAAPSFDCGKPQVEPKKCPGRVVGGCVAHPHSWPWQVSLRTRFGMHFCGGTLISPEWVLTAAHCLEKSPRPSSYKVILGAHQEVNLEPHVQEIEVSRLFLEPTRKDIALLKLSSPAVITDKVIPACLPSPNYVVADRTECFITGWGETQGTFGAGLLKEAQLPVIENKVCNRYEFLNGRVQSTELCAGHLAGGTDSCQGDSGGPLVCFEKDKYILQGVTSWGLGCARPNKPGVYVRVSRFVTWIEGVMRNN


Molecular target: T1, plasminogen
Experiment: SPR

Kd | Binder
3600 nM | hemoglobin A (protein) chain 1: not shown chain 2: not shown
4000 nM | β-globin chain (protein) not shown
93 nM | α-globin chain (protein) not shown
48 nM | tPA (protein) SYQVICRDEKTQMIYQQHQSWLRPVLRSNRVEYCWCNSGRAQCHSVPVKSCSEPRCFNGGTCQQALYFSDFVCQCPEGFAGKCCEIDTRATCYEDQGISYRGTWSTAESGAECTNWNSSALAQKPYSGRRPDAIRLGLGNHNYCRNPDRDSKPWCYVFKAGKYSSEFCSTPACSEGNSDCYFGNGSAYRGTHSLTESGASCLPWNSMILIGKVYTAQNPSAQALGLGKHNYCRNPDGDAKPWCHVLKNRRLTWEYCDVPSCSTCGLRQYSQPQFRIKGGLFADIASHPWQAAIFAKHRRSPGERFLCGGILISSCWILSAAHCFQERFPPHHLTVILGRTYRVVPGEEEQKFEVEKYIVHKEFDDDTYDNDIALLQLKSDSSRCAQESSVVRTVCLPPADLQLPDWTECELSGYGKHEALSPFYSERLKEAHVRLYPSSRCTSQHLLNRTVTDNMLCAGDTRSGGPQANLHDACQGDSGGPLVCLNDGRMTLVGIISWGLGCGQKDVPGVYTKVTNYLDWIRDNMRP
